# According to EP4595979A1 (SystImmune, Inc., dated 2024):
# T1: Trop2 (human, UniProt P09758 27-323)
# T1 sequence (looked up): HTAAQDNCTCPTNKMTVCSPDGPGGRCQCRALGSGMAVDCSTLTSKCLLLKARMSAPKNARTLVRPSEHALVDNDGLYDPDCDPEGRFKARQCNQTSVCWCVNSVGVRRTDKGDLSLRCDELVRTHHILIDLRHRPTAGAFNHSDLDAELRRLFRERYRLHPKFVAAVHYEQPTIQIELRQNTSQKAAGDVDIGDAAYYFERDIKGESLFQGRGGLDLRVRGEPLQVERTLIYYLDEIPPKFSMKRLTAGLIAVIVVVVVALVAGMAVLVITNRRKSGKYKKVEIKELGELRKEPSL
# B1: ADC-1-2a (antibody, human IgG1, kappa, DAR 1.79)
# heavy: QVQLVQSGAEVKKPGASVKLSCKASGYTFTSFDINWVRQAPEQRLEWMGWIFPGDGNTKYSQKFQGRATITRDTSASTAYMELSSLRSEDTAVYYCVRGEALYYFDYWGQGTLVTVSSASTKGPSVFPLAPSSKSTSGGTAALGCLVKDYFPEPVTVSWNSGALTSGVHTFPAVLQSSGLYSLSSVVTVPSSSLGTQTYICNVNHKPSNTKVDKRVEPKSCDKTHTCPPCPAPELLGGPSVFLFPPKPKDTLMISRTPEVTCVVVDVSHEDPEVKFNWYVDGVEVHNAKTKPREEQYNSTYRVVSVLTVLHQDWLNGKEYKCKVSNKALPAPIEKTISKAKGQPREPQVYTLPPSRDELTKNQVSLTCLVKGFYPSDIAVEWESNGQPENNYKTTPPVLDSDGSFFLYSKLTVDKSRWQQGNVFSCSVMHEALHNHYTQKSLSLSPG
# light: DIQMTQSPSSLSASVGDRVTITCRASQDINKYLAWYQQKPGKVPKLLIYSTSTLQSGVPSRFSGSGSGTDFTLTISSLQPEDVATYYCLQYDDLFTFGQGTKLEIKRTVAAPSVFIFPPSDEQLKSGTASVVCLLNNFYPREAKVQWKVDNALQSGNSQESVTEQDSKDSTYSLSSTLTLSKADYEKHKVYACEVTHQGLSSPVCTKSFNRGEC
# modifications: linker-payload LP-1a conjugated site-specifically after partial reduction (general step B), average DAR 1.79; chain and residue not stated
# B2: ADC-2-2a (antibody, human IgG1, kappa, DAR 1.81)
# heavy: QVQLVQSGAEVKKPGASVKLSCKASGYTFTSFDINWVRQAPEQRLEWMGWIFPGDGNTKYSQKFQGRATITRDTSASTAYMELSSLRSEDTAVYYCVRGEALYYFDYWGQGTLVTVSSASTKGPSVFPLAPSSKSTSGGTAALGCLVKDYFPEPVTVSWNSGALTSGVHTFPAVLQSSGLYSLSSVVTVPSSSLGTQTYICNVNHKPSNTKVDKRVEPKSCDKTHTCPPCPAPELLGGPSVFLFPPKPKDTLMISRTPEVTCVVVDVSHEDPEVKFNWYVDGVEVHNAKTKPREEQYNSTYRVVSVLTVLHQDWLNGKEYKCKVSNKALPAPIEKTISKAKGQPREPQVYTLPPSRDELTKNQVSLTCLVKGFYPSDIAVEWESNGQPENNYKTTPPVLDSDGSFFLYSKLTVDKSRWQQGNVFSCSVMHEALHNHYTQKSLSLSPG
# light: B1 light
# modifications: linker-payload LP-2a conjugated site-specifically after partial reduction (general step B), average DAR 1.81; chain and residue not stated
# B3: ADC-C-2a (antibody, human IgG1, kappa, DAR 1.85)
# heavy: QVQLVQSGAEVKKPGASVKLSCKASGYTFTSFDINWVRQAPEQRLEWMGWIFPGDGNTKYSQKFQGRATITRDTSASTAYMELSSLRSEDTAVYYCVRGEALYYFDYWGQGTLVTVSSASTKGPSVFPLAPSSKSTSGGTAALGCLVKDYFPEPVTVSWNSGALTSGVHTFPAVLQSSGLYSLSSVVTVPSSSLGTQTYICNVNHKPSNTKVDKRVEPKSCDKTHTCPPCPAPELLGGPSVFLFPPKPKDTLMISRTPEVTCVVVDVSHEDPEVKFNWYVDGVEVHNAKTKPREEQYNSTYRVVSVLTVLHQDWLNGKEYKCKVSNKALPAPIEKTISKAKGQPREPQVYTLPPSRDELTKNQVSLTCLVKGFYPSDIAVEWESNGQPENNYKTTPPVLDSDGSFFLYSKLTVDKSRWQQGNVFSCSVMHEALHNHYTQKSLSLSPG
# light: B1 light
# modifications: VcMMAE conjugated site-specifically after partial reduction (general step B), average DAR 1.85; chain and residue not stated
# B4: ADC-1-1a (antibody, human IgG1, kappa, DAR 7.59)
# heavy: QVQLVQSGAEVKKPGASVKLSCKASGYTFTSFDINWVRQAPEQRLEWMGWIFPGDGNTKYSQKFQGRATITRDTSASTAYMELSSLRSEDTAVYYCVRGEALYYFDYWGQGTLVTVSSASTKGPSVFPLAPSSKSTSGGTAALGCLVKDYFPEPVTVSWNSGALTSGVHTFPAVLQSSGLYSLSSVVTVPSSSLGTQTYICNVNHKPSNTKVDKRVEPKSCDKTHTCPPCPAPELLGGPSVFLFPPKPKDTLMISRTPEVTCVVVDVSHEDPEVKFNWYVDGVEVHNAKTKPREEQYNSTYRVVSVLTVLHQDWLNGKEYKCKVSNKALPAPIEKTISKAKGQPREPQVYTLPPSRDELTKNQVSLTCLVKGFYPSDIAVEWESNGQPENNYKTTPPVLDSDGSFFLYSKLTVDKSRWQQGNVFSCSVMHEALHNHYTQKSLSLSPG
# light: DIQMTQSPSSLSASVGDRVTITCRASQDINKYLAWYQQKPGKVPKLLIYSTSTLQSGVPSRFSGSGSGTDFTLTISSLQPEDVATYYCLQYDDLFTFGQGTKLEIKRTVAAPSVFIFPPSDEQLKSGTASVVCLLNNFYPREAKVQWKVDNALQSGNSQESVTEQDSKDSTYSLSSTLTLSKADYEKHKVYACEVTHQGLSSPVTKSFNRGEC
# modifications: linker-payload LP-1a on a cysteine thiol of the reduced interchain disulfide (general step A); residue not stated; linker-payload LP-1a (auristatin E derivative) on cysteine thiols of the fully reduced interchain disulfides (general step A); residues not stated; average DAR 7.59
# B5: ADC-C-1a (antibody, human IgG1, kappa, DAR 7.34)
# heavy: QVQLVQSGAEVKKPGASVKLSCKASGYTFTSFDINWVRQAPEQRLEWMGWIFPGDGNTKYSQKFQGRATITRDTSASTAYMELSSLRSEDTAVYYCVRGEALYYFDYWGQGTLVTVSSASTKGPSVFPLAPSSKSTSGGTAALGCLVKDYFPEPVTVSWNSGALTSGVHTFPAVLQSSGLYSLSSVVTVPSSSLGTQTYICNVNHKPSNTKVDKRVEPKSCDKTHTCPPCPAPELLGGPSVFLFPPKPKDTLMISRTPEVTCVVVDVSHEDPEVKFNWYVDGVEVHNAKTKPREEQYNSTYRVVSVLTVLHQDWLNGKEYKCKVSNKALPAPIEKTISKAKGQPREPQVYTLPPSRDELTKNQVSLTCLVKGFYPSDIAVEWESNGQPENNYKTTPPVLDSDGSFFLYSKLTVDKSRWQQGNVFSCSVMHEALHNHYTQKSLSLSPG
# light: B4 light
# modifications: VcMMAE on a cysteine thiol of the reduced interchain disulfide (general step A); residue not stated; VcMMAE (MC-VC-PAB-MMAE) on cysteine thiols of the fully reduced interchain disulfides (general step A); residues not stated; average DAR 7.34
# B6: ADC-2-1a (antibody, human IgG1, kappa, DAR 7.31)
# heavy: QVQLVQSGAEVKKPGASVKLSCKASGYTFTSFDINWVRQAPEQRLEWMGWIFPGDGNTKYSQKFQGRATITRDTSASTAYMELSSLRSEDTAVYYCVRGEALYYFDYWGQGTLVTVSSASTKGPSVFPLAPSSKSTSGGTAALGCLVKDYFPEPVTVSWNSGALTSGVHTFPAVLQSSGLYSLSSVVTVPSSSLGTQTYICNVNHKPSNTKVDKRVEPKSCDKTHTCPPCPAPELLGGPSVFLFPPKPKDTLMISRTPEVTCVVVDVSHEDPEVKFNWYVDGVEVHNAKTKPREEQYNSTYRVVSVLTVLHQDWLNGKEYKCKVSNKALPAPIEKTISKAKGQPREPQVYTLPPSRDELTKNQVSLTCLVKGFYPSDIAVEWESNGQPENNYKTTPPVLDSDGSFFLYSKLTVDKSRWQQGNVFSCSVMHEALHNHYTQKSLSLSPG
# light: B4 light
# modifications: one linker-payload LP-2a on each light chain, maleimide partly ring-opened; residue not stated; linker-payload LP-2a (MMAE derivative) on cysteine thiols of the fully reduced interchain disulfides (general step A); residues not stated; average DAR 7.31
# Target: T1, Trop2
# Test: cell-based or functional assay
Binder,"IC50 (nM), in vitro cytotoxicity (120h), MTS cell viability, A431 cells (Trop2 positive)","IC50 (nM), in vitro cytotoxicity (120h), MTS cell viability, BxPC-3 cells (Trop2 positive)","IC50 (nM), in vitro cytotoxicity (120h), MTS cell viability, NCI-N87 cells (Trop2 positive)"
B1,0.05 nM,0.25 nM,2.6 nM
B2,0.11 nM,0.46 nM,4.7 nM
B3,0.32 nM,0.87 nM,4.9 nM
B4,0.01 nM,0.02 nM,0.36 nM
B5,0.02 nM,0.04 nM,0.63 nM
B6,0.005 nM,0.02 nM,0.35 nM
